Results published in patent CN117138036A.

Columns and labels:
混合人源IL-4、IL-5 (human) = 混合人源IL-4、IL-5 (human) (UniProt P05112); assay: cell-based or functional assay
IL-4Rα [1] = target: IL-4Rα (UniProt P24394); assay: blocking ELISA: IL-4Rα coated, biotin-IL-4; hIgG is the control, fitted value as printed
IL-5 (human) = IL-5 (human) (UniProt P05113); assay: cell-based or functional assay
IL-4Rα [2] = target: IL-4Rα (UniProt P24394); assay: cell-based or functional assay

Substance	EC50, IL4:IL5=1:1混合诱导TF-1增殖, 板8 (混合人源IL-4、IL-5 (human))	EC50, IL4:IL5=1:2混合诱导TF-1增殖, 板10 (混合人源IL-4、IL-5 (human))	EC50, IL4:IL5=1:3混合诱导TF-1增殖, 板12 (混合人源IL-4、IL-5 (human))	EC50, IL4:IL5=3:1混合诱导TF-1增殖, 板4 (混合人源IL-4、IL-5 (human))	EC50, IL4:IL5=4:1混合诱导TF-1增殖, 板2 (混合人源IL-4、IL-5 (human))	试验窗口, IL4:IL5=1:1混合诱导TF-1增殖, 板8 (混合人源IL-4、IL-5 (human))	试验窗口, IL4:IL5=1:2混合诱导TF-1增殖, 板10 (混合人源IL-4、IL-5 (human))	试验窗口, IL4:IL5=1:3混合诱导TF-1增殖, 板12 (混合人源IL-4、IL-5 (human))	试验窗口, IL4:IL5=1:4混合诱导TF-1增殖, 板14 (混合人源IL-4、IL-5 (human))	试验窗口, IL4:IL5=2:1混合诱导TF-1增殖, 板6 (混合人源IL-4、IL-5 (human))	试验窗口, IL4:IL5=3:1混合诱导TF-1增殖, 板4 (混合人源IL-4、IL-5 (human))	试验窗口, IL4:IL5=4:1混合诱导TF-1增殖, 板2 (混合人源IL-4、IL-5 (human))	EC50, IL4:IL5=1:1混合诱导TF-1增殖, 板7 (混合人源IL-4、IL-5 (human))	EC50, IL4:IL5=1:2混合诱导TF-1增殖, 板9 (混合人源IL-4、IL-5 (human))	EC50, IL4:IL5=1:3混合诱导TF-1增殖, 板11 (混合人源IL-4、IL-5 (human))	EC50, IL4:IL5=1:4混合诱导TF-1增殖, 板13 (混合人源IL-4、IL-5 (human))	EC50, IL4:IL5=2:1混合诱导TF-1增殖, 板5 (混合人源IL-4、IL-5 (human))	EC50, IL4:IL5=3:1混合诱导TF-1增殖, 板3 (混合人源IL-4、IL-5 (human))	EC50, IL4:IL5=4:1混合诱导TF-1增殖, 板1 (混合人源IL-4、IL-5 (human))	试验窗口, IL4:IL5=1:1混合诱导TF-1增殖, 板7 (混合人源IL-4、IL-5 (human))	further results
Dupilumab+Mepolizumab(1:1混合)	1.73 nM	1.96 nM	0.88 nM	0.965 nM	0.825 nM	1.92 倍	1.62 倍	1.76 倍	1.79 倍	1.76 倍	1.67 倍	1.68 倍									EC50, IL4:IL5=1:4混合诱导TF-1增殖, 板14 (混合人源IL-4、IL-5 (human)): 0.395 nM; EC50, IL4:IL5=2:1混合诱导TF-1增殖, 板6 (混合人源IL-4、IL-5 (human)): 1.28 nM
Human IgG1,kappa Isotype Control (antibody)	14.7 nM	0.00264 nM	0.00193 nM	0.000915 nM	0.105 nM	1.07 倍	0.99 倍	0.95 倍	1.03 倍	0.99 倍	1.02 倍	1.01 倍									
Mepolizumab (antibody)													14.9 nM	0.00104 nM	0.00147 nM	1.1 nM	2.94 nM	0.00132 nM	0.0013 nM	1.11 倍	试验窗口, IL4:IL5=1:2混合诱导TF-1增殖, 板9 (混合人源IL-4、IL-5 (human)): 1.06 倍; 试验窗口, IL4:IL5=1:3混合诱导TF-1增殖, 板11 (混合人源IL-4、IL-5 (human)): 1.01 倍; 试验窗口, IL4:IL5=1:4混合诱导TF-1增殖, 板13 (混合人源IL-4、IL-5 (human)): 1.14 倍; 试验窗口, IL4:IL5=2:1混合诱导TF-1增殖, 板5 (混合人源IL-4、IL-5 (human)): 0.99 倍; 试验窗口, IL4:IL5=3:1混合诱导TF-1增殖, 板3 (混合人源IL-4、IL-5 (human)): 1.05 倍; 试验窗口, IL4:IL5=4:1混合诱导TF-1增殖, 板1 (混合人源IL-4、IL-5 (human)): 1.02 倍
dupilumab (antibody)													0.57 nM	0.899 nM	0.343 nM	0.156 nM	0.452 nM	0.448 nM	0.813 nM	1.77 倍	试验窗口, IL4:IL5=1:2混合诱导TF-1增殖, 板9 (混合人源IL-4、IL-5 (human)): 1.68 倍; 试验窗口, IL4:IL5=1:3混合诱导TF-1增殖, 板11 (混合人源IL-4、IL-5 (human)): 1.53 倍; 试验窗口, IL4:IL5=1:4混合诱导TF-1增殖, 板13 (混合人源IL-4、IL-5 (human)): 1.58 倍; 试验窗口, IL4:IL5=2:1混合诱导TF-1增殖, 板5 (混合人源IL-4、IL-5 (human)): 1.6 倍; 试验窗口, IL4:IL5=4:1混合诱导TF-1增殖, 板1 (混合人源IL-4、IL-5 (human)): 1.77 倍
hIgG (antibody)																					EC50 (IL-4Rα [1]): 2.04 nM; EC50, 中和IL-5诱导的TF-1细胞增殖 (control) (IL-5 (human)): 0.108 nM; EC50, 中和IL-4诱导的TF-1细胞增殖 (control) (IL-4Rα [2]): 0.375 nM; EC50, 中和IL-13诱导的TF-1细胞增殖 (control) (IL-4Rα [2]): 0.131 nM
